# From the nanobody polyreactivity screen of Harvey et al. (2022)
# Assay: yeast display, Sf9 membrane polyspecificity reagent, FACS + sequencing; frameworks hold sequencing errors
# Method in brief: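 Sorting gates, low and high (top ~1%), were placed on anti-HA fluorescence to track expression and on streptavidin fluorescence to track reagent binding. A clone's polyreactivity label is taken from the gate it came out of. The reagent was 10% biotinylated, detergent-solubilized Sf9 membrane, applied for 1 hour at 4 °C to galactose-induced yeast display cells.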
row,Sequence,polyreactivity (PSR sort gate)
1,QVQIEESGGCLVQAGGSLRLTCAASGRIISWNAMGWSRQAPGKERELVAGITWNGGRTYYADSVKGRFTISRDNVKNTVYLQMNSLKPEDTAVFSCNAERFDLTYNYWGQGTQVTVSS,high polyreactivity
2,QVQIEESGGGLVQEGGSLRISCAASGRIFVYYAMGWNRQAPGKDWELVAAISSGGNTYADSVKGRFTISRDNAKITVYLQMYSLKPDDTAVYYCNASPVSSHVHPKRGYEYWGQGTQVNVSS,low polyreactivity
3,QVQIEESGGVLVQAGGSLRLSCAASGSIFQPYALGWYRQAPGKERELVAAISSSGGSTTYADSVKGRFTISRDIAKNTVYLQMNSLKPEDTAVYYCAADSADDMGYWGQGTQVTVSS,low polyreactivity
4,QVQIEESRVGLVQAGGSLRLSCAASGSIIYENMGWYRPAPGKERELVASISWSGTSTYADSVKGRFTMTRDNAKTTVYLLMNSLKPEDTAVYSCAAYPYPFYQSKYLGIGYGFWGQGTQVTVSS,high polyreactivity
5,QVQILESGGWLVQAGGSLRLSCASSGRTFDVYAMGWYRQAPGKERELVAAISWGAGNTYYADSVKGRFTISRDNAKNTVYLQMNSLKPEDTAVYYCAAEDDWSEYDYWGQGTQVTVSS,high polyreactivity
6,QVQIVDSGRGLVQAGGSLRLSCAASGRTFIRYTMGWSRQATGKERELFAAITSGGITNYADSVKGRFTISRDNAKNPVYLQMNSLKPQDSALYYCAARHRWVTGSYGKYDYLGQGTQVTVSS,low polyreactivity
7,QVQIVESGAGLVQAGGSLRLSCAASGSIYAPNAMGWYRQAPGKERELVAAISRSGGRTYYADSVKGRFTISRDNAKNTVYLQMNSLKPEDTAVYYCAADYKHQRTYGSWGQGTQVSVSS,high polyreactivity
8,QVQIVESGGAFVQAGGSLRLRCEASGSTFVNKDMGWSRPAPGKEREFVAAIRNTGGRTYYADSVKGRFTISRDNAKNSVYLQMNSLKPEDTAVYYCAAVSRVRTLWRMDYWGQGTQVTVSS,high polyreactivity
9,QVQIVESGGALVQAGGGHRLSCAASGRTFTYNAMGWYRQAPGKERELVAAITSGGSTNYADSVKGRFTISRDNAKNTVYLQMNSLKPEDTAVYYCAARRVYYSYRRYYYWGQGTQVTVSS,low polyreactivity
10,QVQIVESGGALVQAGGSLRLSCAASGITLRPYAMGWYRQAPGKERELVAAITSSGGSTYYADSVKGRFTISRDIAKNTVYLLMNSLIPEDTAVYYCAALRVYAGDYWGQGTQVTVSS,low polyreactivity
11,QVQIVESGGALVQAGGSLRLSCAASGSTHGNAMGWYRQAPGKERELVAAISLNTGSTYYADSVKGRFTISRDNAKNTVYLQMNSLKPEDTAVYYCAAGGTARDDSWGQGTQVTVSS,low polyreactivity
12,QVQIVESGGFLVQAGGSLRLSCDASGRNIPGYGMGWSRHAPGKERELVAVITSNGGITYYADSVKGRFTISRDYAKNTVYLQMNSLKPEDTAVYYCDAYVIYYEFDSWGQGTQVTVSS,low polyreactivity
13,QVQIVESGGGFVQAGGSLRLSCAASGRIYGNTMGWYRQAHGKERELVAAITRSGVSTYYADSVKGRFTISRDNAKNTVYLQMNSLKPDDTAVYYCAAREWSGPKINPPYRYNSWGQGTQETVSS,high polyreactivity
14,QVQIVESGGGLFQAGGSLRISCAASGRIFQYYTMGWYRQAPGKERELVATISRRGGTTYYADSVKGRFTISRDNAKNTVYLQMNSLKPEDTAVYYCNADSRTYRYYWSYGYWGQGTQVTVSS,high polyreactivity
15,QVQIVESGGGLFQAGGSLRISCAPSGRTLRYNTMGWYRQAPGKERELVAAISIRGGSTYYADSVKGRFTISRDNAKNTVYLQMNSLKPEDTAVSYCNARFTYRWGMGYWGQGTQVTVSS,high polyreactivity
16,QVQIVESGGGLFQAGGSLRLICAASGRIFGNYSMGSSRQEPGKEREFVAAIDWSGGTTYYADSVKGPFTISRDNAKNTVYLQMNSLKPEDTEVYYCAAKYVYSVGNYRYDYWGQGTEVTVSS,low polyreactivity
17,QVQIVESGGGLVQAAGSLRLSCAAYGRIFGVYAMGWYRQAPGKERELVSNITSGGSTSYADSVKGRFTISRDNAKNTVYLQMNSLKPEDTAVYYCNAPYSFFWQQMNYWGQGTQVTVSS,low polyreactivity
18,QVQIVESGGGLVQAGCSLRLSCAASGHTFTIKAMGWYRQAPGKERELVAAITFSGGRTYYADSVKGRFTISRDNAKNTVYLQMNSLKPEDTAVYYFAADNPGGSIYDYWGQGTQVNVSS,low polyreactivity
19,QVQIVESGGGLVQAGGILRLSCAASVITFGYYAMGWYSQAPGKEWELVAAISRSGGNTRYADSVKGRFTISRDNAKNTVYLQMNSLTPEDTAVYYCAAYSRYTRTFPLFSGSRYGYWGHGTQVTVSS,high polyreactivity
20,QVQIVESGGGLVQAGGRLRLSCAASGSIFSIYDMGWYRQAPGKERELVAAITWGGASTYYADSVKGRFTISRDNAKNTVYLQMNSLKPEDTAVYYCAADSLTWNGTYYYWGQGTQVTVSS,high polyreactivity
21,QVQIVESGGGLVQAGGRLSLTCAASGRIFTAYAMRWYRPAPGKEREFVAAISARGGSTNYADSVKGRFTISRDNAMNTVYLQMNSLKPEDTAVYYCHARFVQWYWIGNVIHIDNDYWGQGSQVTVSS,low polyreactivity
22,QVQIVESGGGLVQAGGSHRLSCAASVFTFGGNVMGWYRQAPGKEREFVAAISSSGGSTYYADSVKGRFTISRDNEKNTVFLQINSLKPDDTAVYYCAKYAVVYQYRYYHWGQGTQVTVSS,high polyreactivity
23,QVQIVESGGGLVQAGGSLPLSCAASGFIYNYNAMGWYRQAPRKERELVAAISTSGSSTYYADSVKGRFTISRDTPKNTVYLQMNSLKPEVTAVYYCARYRVARGEGGWLYDYWGQGTQVTVSS,high polyreactivity
24,QVQIVESGGGLVQAGGSLRISCAASGRIFRTYAMGWYRQAPGKERELVAAISSRGGSTSYADSVKGRFTISRDNEKNTVYLQLNSLKPEDTAVYYCARVGRNPVKYDYWGQGTQVTVSS,high polyreactivity
25,QVQIVESGGGLVQAGGSLRISCAASGRTYRFYAMGWYRQAPGKERELVAAISSGGSTYYADSVKGRFTISRDNAKNTVYLQMNSLNPEDTAVYYCAAQRWRGASLYDYWGQGTQVTVSS,high polyreactivity
26,QVQIVESGGGLVQAGGSLRLCCAASGRTFYGSKMGWYRQAPGKESELVAAISRNGASTFYADSVKRRFTISRDNAKKSVYLQINILKPEYTGVYYFNARSWRHTDTSFEYWGQGTQVTVSS,high polyreactivity
27,QVQIVESGGGLVQAGGSLRLRCAASGITFSIYAMGWYRQAPGKERELVAAIDSGGGTNYADSVKGRFTISLDNAKNTVYLQMNSLKAEDTAVYYCAADFLKVDWYDYWGQGTQVTVSS,low polyreactivity
28,QVQIVESGGGLVQAGGSLRLRCAASGRIVKYAMGWYRHAPGKERELVAAINSGGSTKYADSVKGRFTISRDNAKITVYLQMICLKPEDTAVYYCAARILYHMDLGQGTQVTVSS,high polyreactivity
29,QVQIVESGGGLVQAGGSLRLSCAASGFIFQTNVMGWYRQAPGKERELVAAISSGDSTYYADSVKGRFTISRDNAKNTVYLQMNSLKPEDTAVYYCAADVLGTTTTVGGFNYWGQGTQVTVSS,low polyreactivity
30,QVQIVESGGGLVQAGGSLRLSCAASGFIFYSYAMGWYRQAPGKEREFVASISGRTGSTYYADSVKVRFTISRDNAKNTVYLQMNSLKPEDTAVYYCNARIVHSFRYDYWGQGTQVTVSS,low polyreactivity
